Our source for the Kd values is US20230406886A1 (DAEGU GYEONGBUK INSTITUTE OF SCIENCE AND TECHNOLOGY, published 2023).

Where a chain is given by its changes, count along the chain named.

The chains are these.
B1: COVID-19 therapeutic protein CTP-γ1 (designed binder)
chain: MKASSLADNVYNTNITKENVQNMNEEQAKTFLDKFNHEAEDLFYQSSGLGKGDFR
B2: COVID-19 therapeutic protein CTP-γ2 (designed binder)
chain: B1 chain with A3E
B3: COVID-19 therapeutic protein CTP-γ3 (designed binder)
chain: B1 chain with S5E
B4: COVID-19 therapeutic protein CTP-α1 (designed binder)
chain: MKSELASNVYNTNITKENVQNMNEEQAKTFLDKFNHEAEDLFYQSSGLGKGDFR
B5: COVID-19 therapeutic protein CTP-α3 (designed binder)
chain: B4 chain with E4Q, S7E
B6: COVID-19 therapeutic protein CTP-β3 (designed binder)
chain: B4 chain with K2E
B7: COVID-19 therapeutic protein CTP-β2 (designed binder)
chain: B4 chain with K2E, N8V, V9N, N21A, M22N, N23G
B8: COVID-19 therapeutic protein CTP-α2 (designed binder)
chain: B4 chain with E4D
B9: COVID-19 therapeutic protein CTP-β1 (designed binder)
chain: B4 chain with N8V, V9N, N21A, M22N, N23G

The target of the assay is SARS-CoV2 spike protein S1 receptor binding domain (RBD) (SARS-CoV2, UniProt P0DTC2 319-541).
As usually defined, the Kd is the free concentration of one partner at which half of the binding sites on the other are occupied at equilibrium, for simple one-to-one binding. A low value points to tighter binding. In the case of B1, binding was put at a Kd of 47.5 nM.

B2 showed a Kd of 42.8 nM.

In the case of B3, the Kd was 39.2 nM.

In turn, GEFADKLKNELAKTEEQAKTFLDKFNHEAEDLFYQSSGLGKGDFR (designed binder) [COVID-19 therapeutic protein CTP-δ1] returned a Kd of 56.3 nM.

As for B4, the dissociation constant Kd was 37.8 nM.

Consider B5, for which the equilibrium dissociation constant (Kd) was determined as 35.7 nM. This Kd and that of the molecule before are within 1.5-fold of each other.

Molecule B6 returned a Kd of 56.4 nM. This Kd lies about 1.6-fold higher than the previous one.

The molecule B7 returned a Kd of 42.9 nM.

On to B8, for which binding was characterised by a dissociation constant (Kd) of 50.4 nM.

Molecule B9 returned a Kd of 82 nM.
